Data on four molecules can be found in PMC11209852.

For this test, the target named is GST-fused human AP-2 alpha-C (AP2A2) appendage domain, Ser923Gly (human) (UniProt O94973). In words: pull-down.
UniProt O94973, sequence (O94973 whole entry S923G, the tested form may be a part): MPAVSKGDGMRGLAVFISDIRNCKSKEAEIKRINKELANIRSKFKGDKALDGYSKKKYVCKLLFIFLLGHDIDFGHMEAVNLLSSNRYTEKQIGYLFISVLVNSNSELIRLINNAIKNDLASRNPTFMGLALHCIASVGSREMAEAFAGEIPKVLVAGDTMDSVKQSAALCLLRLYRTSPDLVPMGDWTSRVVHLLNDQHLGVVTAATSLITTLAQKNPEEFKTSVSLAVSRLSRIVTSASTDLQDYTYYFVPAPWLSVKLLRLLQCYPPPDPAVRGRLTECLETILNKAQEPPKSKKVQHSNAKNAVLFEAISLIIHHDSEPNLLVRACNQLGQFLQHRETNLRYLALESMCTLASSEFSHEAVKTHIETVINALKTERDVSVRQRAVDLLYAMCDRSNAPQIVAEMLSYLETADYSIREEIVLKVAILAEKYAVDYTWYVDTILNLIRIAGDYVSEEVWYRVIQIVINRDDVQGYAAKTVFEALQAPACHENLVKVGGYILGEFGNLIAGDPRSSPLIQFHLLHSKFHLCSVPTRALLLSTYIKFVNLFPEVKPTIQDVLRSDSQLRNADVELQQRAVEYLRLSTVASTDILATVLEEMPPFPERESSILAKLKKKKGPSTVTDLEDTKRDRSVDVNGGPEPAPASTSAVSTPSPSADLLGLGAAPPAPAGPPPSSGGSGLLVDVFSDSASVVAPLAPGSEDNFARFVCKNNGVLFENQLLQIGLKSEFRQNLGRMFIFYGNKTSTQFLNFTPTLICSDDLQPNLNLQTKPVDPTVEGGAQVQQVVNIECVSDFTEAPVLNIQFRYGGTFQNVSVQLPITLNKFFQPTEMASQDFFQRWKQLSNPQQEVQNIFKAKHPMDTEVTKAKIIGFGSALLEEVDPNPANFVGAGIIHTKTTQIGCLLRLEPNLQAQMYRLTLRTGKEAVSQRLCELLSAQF

Regarding “amphiphysin (from UniProt P49418 1-695) (natural protein)”, the percent reduction of pulled-down signal against wildtype AP2A2-ear amounted to 20%.

B1: AP180 (natural protein)
chain: MSGQTLTDRIAAAQYSVTGSAVARAVCKATTHEVMGPKKKHLDYLIQATNETNVNIPQMADTLFERATNSSWVVVFKALVTTHHLMVHGNERFIQYLASRNTLFNLSNFLDKSGSHGYDMSTFIRRYSRYLNEKAFSYRQMAFDFARVKKGADGVMRTMAPEKLLKSMPILQGQIDALLEFDVHPNELTNGVINAAFMLLFKDLIKLFACYNDGVINLLEKFFEMKKGQCKDALEIYKRFLTRMTRVSEFLKVAEQVGIDKGDIPDLTQAPSSLMETLEQHLNTLEGKKPGNNEGSGAPSPLSKSSPATTVTSPNSTPAKTIDTSPPVDLFATASAAVPVSTSKPSSDLLDLQPDFSSGGAAAAAAPAPPPPAGGATAWGDLLGEDSLAALSSVPSEAQISDPFAPEPTPPTTTAEIATASASASTTTTVTAVTAEVDLFGDAFAASPGEAPAASEGAAAPATPTPVAAALDACSGNDPFAPSEGSAEAAPELDLFAMKPPETSVPVVTPTASTAPPVPATAPSPAPAVAAAAAATTAATAAATTTTTTSAATATTAPPALDIFGDLFESTPEVAAAPKPDAAPSIDLFSTDAFSSPPQGASPVPESSLTADLLSVDAFAAPSPATTASPAKVDSSGVIDLFGDAFGSSASEPQPASQAASSSSASADLLAGFGGSFMAPSPSPVTPAQNNLLQPNFEAAFGTTPSTSSSSSFDPSVFDGLGDLLMPTMAPAGQPAPVSMVPPSPAMAASKALGSDLDSSLASLVGNLGISGTTTKKGDLQWNAGEKKLTGGANWQPKVAPATWSAGVPPSAPLQGAVPPTSSVPPVAGAPSVGQPGAGFGMPPAGTGMPMMPQQPVMFAQPMMRPPFGAAAVPGTQLSPSPTPASQSPKKPPAKDPLADLNIKDFL
For B1, the percent reduction of pulled-down signal against wildtype AP2A2-ear was determined as 80%.

B2: auxilin (natural protein)
chain: MKDSENKGASSPDMEPSYGGGLFDMVKGGAGRLFSNLKDNLKDTLKDTSSRVIQSVTSYTKGDLDFTYVTSRIIVMSFPLDNVDIGFRNQVDDIRSFLDSRHLDHYTVYNLSPKSYRTAKFHSRVSECSWPIRQAPSLHNLFAVCRNMYNWLLQNPKNVCVVHCLDGRAASSILVGAMFIFCNLYSTPGPAIRLLYAKRPGIGLSPSHRRYLGYMCDLLADKPYRPHFKPLTIKSITVSPIPFFNKQRNGCRPYCDVLIGETKIYSTCTDFERMKEYRVQDGKIFIPLNITVQGDVVVSMYHLRSTIGSRLQAKVTNTQIFQLQFHTGFIPLDTTVLKFTKPELDACDVPEKYPQLFQVTLDVELQPHDKVIDLTPPWEHYCTKDVNPSILFSSHQEHQDTLALGGQAPIDIPPDNPRHYGQSGFFASLCWQDQKSEKSFCEEDHAALVNQESEQSDDELLTLSSPHGNANGDKPHGVKKPSKKQQEPAAPPPPEDVDLLGLEGSAMSNSFSPPAAPPTNSELLSDLFGGGGAAGPTQAGQSGVEDVFHPSGPASTQSTPRRSATSTSASPTLRVGEGATFDPFGAPSKPSGQDLLGSFLNTSSASSDPFLQPTRSPSPTVHASSTPAVNIQPDVSGGWDWHAKPGGFGMGSKSAATSPTGSSHGTPTHQSKPQTLDPFADLGTLGSSSFASKPTTPTGLGGGFPPLSSPQKASPQPMGGGWQQGGAYNWQQPQPKPQPSMPHSSPQNRPNYNVSFSAMPGGQNERGKGSSNLEGKQKAADFEDLLSGQGFNAHKDKKGPRTIAEMRKEEMAKEMDPEKLKILEWIEGKERNIRALLSTMHTVLWAGETKWKPVGMADLVTPEQVKKVYRKAVLVVHPDKATGQPYEQYAKMIFMELNDAWSEFENQGQKPLY
In the case of B2, the percent reduction of pulled-down signal against wildtype AP2A2-ear worked out at 70%.

B3: EPS15 (natural protein)
chain: MAAAAQLSLTQLSSGNPVYEKYYRQVDTGNTGRVLASDAAAFLKKSGLPDLILGKIWDLADTDGKGILNKQEFFVALRLVACAQNGLEVSLSSLNLAVPPPRFHDTSSPLLISGTSAAELPWAVKPEDKAKYDAIFDSLSPVNGFLSGDKVKPVLLNSKLPVDILGRVWELSDIDHDGMLDRDEFAVAMFLVYCALEKEPVPMSLPPALVPPSKRKTWVVSPAEKAKYDEIFLKTDKDMDGFVSGLEVREIFLKTGLPSTLLAHIWSLCDTKDCGKLSKDQFALAFHLISQKLIKGIDPPHVLTPEMIPPSDRASLQKNIIGSSPVADFSAIKELDTLNNEIVDLQREKNNVEQDLKEKEDTIKQRTSEVQDLQDEVQRENTNLQKLQAQKQQVQELLDELDEQKAQLEEQLKEVRKKCAEEAQLISSLKAELTSQESQISTYEEELAKAREELSRLQQETAELEESVESGKAQLEPLQQHLQDSQQEISSMQMKLMEMKDLENHNSQLNWCSSPHSILVNGATDYCSLSTSSSETANLNEHVEGQSNLESEPIHQESPARSSPELLPSGVTDENEVTTAVTEKVCSELDNNRHSKEEDPFNVDSSSLTGPVADTNLDFFQSDPFVGSDPFKDDPFGKIDPFGGDPFKGSDPFASDCFFRQSTDPFATSSTDPFSAANNSSITSVETLKHNDPFAPGGTVVAASDSATDPFASVFGNESFGGGFADFSTLSKVNNEDPFRSATSSSVSNVVITKNVFEETSVKSEDEPPALPPKIGTPTRPCPLPPGKRSINKLDSPDPFKLNDPFQPFPGNDSPKEKDPEIFCDPFTSATTTTNKEADPSNFANFSAYPSEEDMIEWAKRESEREEEQRLARLNQQEQEDLELAIALSKSEISEA
For B3, the percent reduction of pulled-down signal against wildtype AP2A2-ear was found to be 30%.
